The results in this text go back to patent publication US20200347133A1 (INHIBRX, published 2020).

For assay [1], the target named is T1, CD33m, truncated human CD33 protein expressed on transfected cells (human, UniProt P20138 140-259).
T1 construct: leader and transmembrane domain are not in it; also called truncated CD33
Description: flow cytometry on cells transfected with truncated CD33m; apparent Kd, one-site fit; CD33m isoform, not CD33M. As for the experimental part: (§1) Binding of sdAbs to human CD33 was assessed by flow cytometry. […] MOLM-13 cells were transiently transfected with a plasmid encoding a sequence comprising “CD33M” (SEQ ID NO: 112) or a plasmid encoding a sequence comprising a truncated version, “CD33m” (SEQ ID NO: 113). The sequence encoded by the CD33M plasmid includes the leader sequence, full extracellular domain, transmembrane domain, and cytoplasmic domain. The sequence encoded by the CD33m plasmid includes the leader sequence, the membrane proximal IgC2 domain, and the transmembrane domain. Untransfected HEK 293 cells were used as CD33-negative cells. Each cell type was plated at 30,000 cells/well in FACS buffer (PBS 1% BSA, 0.1% NaN₃ pH 7.4) on a 96-well round-bottom plate. The sdAbs were diluted in FACS buffer in a 3-fold, 11 point serial dilution. The sdAb dilutions were added to the plated cells, and assay plates were incubated for 30 minutes at 4° C. […] The cells were washed twice more, then bound antibody was detected by flow cytometry.
(§2) Flow cytometric analysis was performed on an Intellicyte iQue Plus and fluorescence was plotted as median fluorescence intensity. The apparent affinity (Kd, nM) was determined using one site binding non-linear regression in PRISM graph software.

The target in assay [2] is T2, CD33M, full length human CD33 protein expressed on transfected cells (human, UniProt P20138 18-303).
T2 construct: also called full length CD33
Description: flow cytometry on cells transfected with CD33M; apparent Kd, one-site fit. As for the experimental part:
(§3) Binding of sdAbs to human CD33 was assessed by flow cytometry. […] MOLM-13 cells were transiently transfected with a plasmid encoding a sequence comprising “CD33M” (SEQ ID NO: 112) or a plasmid encoding a sequence comprising a truncated version, “CD33m” (SEQ ID NO: 113). The sequence encoded by the CD33M plasmid includes the leader sequence, full extracellular domain, transmembrane domain, and cytoplasmic domain. The sequence encoded by the CD33m plasmid includes the leader sequence, the membrane proximal IgC2 domain, and the transmembrane domain. Untransfected HEK 293 cells were used as CD33-negative cells. Each cell type was plated at 30,000 cells/well in FACS buffer (PBS 1% BSA, 0.1% NaN₃ pH 7.4) on a 96-well round-bottom plate. The sdAbs were diluted in FACS buffer in a 3-fold, 11 point serial dilution. The sdAb dilutions were added to the plated cells, and assay plates were incubated for 30 minutes at 4° C. After washing twice in 150 μL of FACS buffer, cells in each well were resuspended in 100 μL of 1:2000 Alexa Fluor 647-conjugated Anti-Human IgG secondary diluted in FACS buffer and incubated at 4° C. for 30 minutes. The cells were washed twice more, then bound antibody was detected by flow cytometry.
as §2

Assay [3] concerns the target T1, CD33m, truncated human CD33 protein …. Description: flow cytometry on cells labelled CD33m-HEK-293, anti-human IgG Alexa Fluor 647 secondary, median fluorescence. How it is done: as §1, §2
The target is the same in assay [4]. Put plainly: flow cytometry on cells transfected with truncated CD33m; apparent Kd, one-site fit. How it is done:
as §3, §2
In general terms: In flow cytometry, cells or beads pass a laser one at a time.

Assay [5] has as its target T2, CD33M, full length human CD33 protein …. Put plainly: flow cytometry on cells labelled CD33M-HEK-293, anti-human IgG Alexa Fluor 647 secondary, median fluorescence. As for the experimental part: Binding of sdAbs to human CD33 was assessed by flow cytometry. […] […] The sequence encoded by the CD33M plasmid includes the leader sequence, full extracellular domain, transmembrane domain, and cytoplasmic domain. The sequence encoded by the CD33m plasmid includes the leader sequence, the membrane proximal IgC2 domain, and the transmembrane domain. Untransfected HEK 293 cells were used as CD33-negative cells. Each cell type was plated at 30,000 cells/well in FACS buffer (PBS 1% BSA, 0.1% NaN₃ pH 7.4) on a 96-well round-bottom plate. The sdAbs were diluted in FACS buffer in a 3-fold, 11 point serial dilution. The sdAb dilutions were added to the plated cells, and assay plates were incubated for 30 minutes at 4° C. After washing twice in 150 μL of FACS buffer, cells in each well were resuspended in 100 μL of 1:2000 Alexa Fluor 647-conjugated Anti-Human IgG secondary diluted in FACS buffer and incubated at 4° C. for 30 minutes. The cells were washed twice more, then bound antibody was detected by flow cytometry.
as §2

Assay [6] has the same target. Put plainly: flow cytometry on Molm-13 cells transfected with CD33 (CD33M per Table 3), anti-human IgG Alexa Fluor 647 secondary, median fluorescence. How it is done: as §1, §2
Assay [7] has the same target. Put plainly: flow cytometry on Molm-13 cells transfected with CD33 (CD33M per Table 3), fluorescent anti-human IgG secondary, axis Median BL-1H.

T1 sequence (P20138 140-259 limits assumed): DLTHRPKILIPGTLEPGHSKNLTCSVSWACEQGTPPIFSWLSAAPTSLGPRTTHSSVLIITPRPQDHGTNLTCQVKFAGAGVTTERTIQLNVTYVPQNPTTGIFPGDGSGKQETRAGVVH
T2 sequence (P20138 18-303): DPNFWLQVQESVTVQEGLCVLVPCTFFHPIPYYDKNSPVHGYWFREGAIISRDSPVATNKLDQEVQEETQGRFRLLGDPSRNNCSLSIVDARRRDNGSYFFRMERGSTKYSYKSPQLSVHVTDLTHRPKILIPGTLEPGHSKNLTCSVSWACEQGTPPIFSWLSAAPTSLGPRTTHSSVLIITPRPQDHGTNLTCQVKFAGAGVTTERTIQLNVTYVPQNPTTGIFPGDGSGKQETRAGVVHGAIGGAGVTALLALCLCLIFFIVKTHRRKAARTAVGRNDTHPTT

B1: A07 sdAb (A07 VHH domain fused to human IgG1 xELL Fc region) (Fc fusion)
chain: QVQLVQSGGGLVQAGGSLTLSCAASRSSGIDVMGWYRQAPGKERELVAEISGVGDTNYAASLADRFTVSRDNAKNTVYLQMKNLKPEDTAVYYCNAHSFLDLVGAWGQGTQVTVDKTHTCPPCPAPGGPSVFLFPPKPKDTLMISRTPEVTCVVVDVSHEDPEVKFNWYVDGVEVHNAKTKPREEQYNSTYRVVSVLTVLHQDWLNGKEYKCKVSNKALPAPIEKTISKAKGQPREPQVYTLPPSRDELTKNQVSLTCLVKGFYPSDIAVEWESNGQPENNYKTTPPVLDSDGSFFLYSKLTVDKSRWQQGNVFSCSVMHEALHNHYTQKSLSLSPGK
notes: VHH-Fc; no linker stated
With B1, the Kd is 19.9 nM in assay [1] and 53.5 nM in assay [2].

B2: hzA07v4 sdAb (hzA07v4 VHH domain fused to human IgG1 xELL Fc region) (Fc fusion)
chain: EVQLVESGGGEVQPGGSLRLSCAASRSSGIDVMGWYRQAPGKERELVAEISGVGDTNYAASLADRFTVSRDNAKNTVYLQMSSLRAEDTAVYYCNAHSFLDLVGAWGQGTLVTVDKTHTCPPCPAPGGPSVFLFPPKPKDTLMISRTPEVTCVVVDVSHEDPEVKFNWYVDGVEVHNAKTKPREEQYNSTYRVVSVLTVLHQDWLNGKEYKCKVSNKALPAPIEKTISKAKGQPREPQVYTLPPSRDELTKNQVSLTCLVKGFYPSDIAVEWESNGQPENNYKTTPPVLDSDGSFFLYSKLTVDKSRWQQGNVFSCSVMHEALHNHYTQKSLSLSPGK
notes: VHH-Fc; no linker stated; also called hzA07v4-IgG1
Consider B2, for which the EC50 (read off the curve) (commonly the concentration at which the effect is half-maximal) in assay [3] was approximately 9 nM. The Kd in assay [4] worked out at 11.8 nM; in assay [2], 56.6 nM.

B3: hzF02v18 sdAb (hzF02v18 VHH domain fused to human IgG1 xELL Fc region) (Fc fusion)
chain: EVQLVESGGGEVQPGGSLRLSCAASGSISSYNVMGWYRQAPGKQRELVAQINAYGDTNYANAVVGRFTISRDNAKNTVYLQMSSLRAEDTAVYYCNGQRMLENYTYRDQSWGQGTLVTVDKTHTCPPCPAPGGPSVFLFPPKPKDTLMISRTPEVTCVVVDVSHEDPEVKFNWYVDGVEVHNAKTKPREEQYNSTYRVVSVLTVLHQDWLNGKEYKCKVSNKALPAPIEKTISKAKGQPREPQVYTLPPSRDELTKNQVSLTCLVKGFYPSDIAVEWESNGQPENNYKTTPPVLDSDGSFFLYSKLTVDKSRWQQGNVFSCSVMHEALHNHYTQKSLSLSPGK
notes: VHH-Fc; no linker stated; also called hzF02v18-IgG1
For B3, the “EC50 (read off the curve)” value in assay [3] is approximately 8 nM; in assay [5] it was 10 to 100 nM. Moreover, the Kd was determined as 9.13 nM in assay [4] and 14.8 nM in assay [2].

B4: hz1C7v1 sdAb (hz1C7v1 VHH domain fused to human IgG1 xELL Fc region) (Fc fusion)
chain: EVQLVESGGGEVQPGGSLRLSCAASGRTFSGYIMGWFRQAPGKERELVARISGNNLSTEYAESVKGRFTISRDNAKNTLYLQMSSLRAEDTAVYYCAAEYDYSSGDFVYWGQGTLVTVDKTHTCPPCPAPGGPSVFLFPPKPKDTLMISRTPEVTCVVVDVSHEDPEVKFNWYVDGVEVHNAKTKPREEQYNSTYRVVSVLTVLHQDWLNGKEYKCKVSNKALPAPIEKTISKAKGQPREPQVYTLPPSRDELTKNQVSLTCLVKGFYPSDIAVEWESNGQPENNYKTTPPVLDSDGSFFLYSKLTVDKSRWQQGNVFSCSVMHEALHNHYTQKSLSLSPGK
notes: VHH-Fc; no linker stated; also called hz1C7v1-IgG1
With B4, the “EC50 (read off the curve)” value in assay [6] was approximately 6 nM. In addition, the Kd in assay [2] is 6.25 nM.

B5: hz1C7v11 sdAb (hz1C7v11 VHH domain fused to human IgG1 xELL Fc region) (Fc fusion)
chain: EVQLVESGGGEVQPGGSLRLSCAASGRTFSGYIMGWFRQAPGKERELVARISGNNLATEYAESVKGRFTISRDNAKNTLYLQMSSLRAEDTAVYYCAAEYDYSSGDFVYWGQGTLVTVDKTHTCPPCPAPGGPSVFLFPPKPKDTLMISRTPEVTCVVVDVSHEDPEVKFNWYVDGVEVHNAKTKPREEQYNSTYRVVSVLTVLHQDWLNGKEYKCKVSNKALPAPIEKTISKAKGQPREPQVYTLPPSRDELTKNQVSLTCLVKGFYPSDIAVEWESNGQPENNYKTTPPVLDSDGSFFLYSKLTVDKSRWQQGNVFSCSVMHEALHNHYTQKSLSLSPGK
notes: VHH-Fc; no linker stated; also called hz1C7v11-IgG1
As to B5, the “EC50 (read off the curve)” value in assay [7] was approximately 5 nM. In addition, the Kd in assay [2] was found to be 5.45 nM.
